Test results: publication PMC7144918

B1: BZ91/BZ107 25 bp duplex (dsDNA)
DNA 1: GATGCCTCCAAGGTCGACGATGCAG
DNA 2: CTGCATCGTCGACCTTGGAGGCATC
B2: BZ57/BZ109 25 bp Cy3 duplex (dsDNA)
DNA 1: GATGCCTCCAAGGTCGACGATGCAG
DNA 2: CTGCATCGTCGACCTTGGAGGCATC
modifications: internal Cy3 in backbone after nt 4 of each strand

Biological target: Ku70/80 heterodimer (Ku) (UniProt P12956;P13010 1-609;1-732)
Test: EMSA

Sequence of Ku70/80 heterodimer (Ku) (P12956 whole entry, chain 1 of 2): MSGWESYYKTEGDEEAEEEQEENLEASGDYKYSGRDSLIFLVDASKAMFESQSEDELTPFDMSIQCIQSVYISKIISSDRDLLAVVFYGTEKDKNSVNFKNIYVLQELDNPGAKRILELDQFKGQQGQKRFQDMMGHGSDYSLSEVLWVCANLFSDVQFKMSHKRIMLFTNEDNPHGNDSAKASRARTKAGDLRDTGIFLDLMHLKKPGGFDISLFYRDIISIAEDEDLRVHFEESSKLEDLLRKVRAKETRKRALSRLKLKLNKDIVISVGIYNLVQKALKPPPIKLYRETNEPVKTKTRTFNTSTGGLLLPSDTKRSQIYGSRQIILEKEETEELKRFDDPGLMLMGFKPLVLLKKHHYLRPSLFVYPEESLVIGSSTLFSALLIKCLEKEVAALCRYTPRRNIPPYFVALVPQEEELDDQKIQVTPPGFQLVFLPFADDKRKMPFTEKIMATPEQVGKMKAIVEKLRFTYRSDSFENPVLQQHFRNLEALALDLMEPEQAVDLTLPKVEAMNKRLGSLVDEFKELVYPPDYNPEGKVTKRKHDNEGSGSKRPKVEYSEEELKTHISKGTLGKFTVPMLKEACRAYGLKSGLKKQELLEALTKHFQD
Sequence of Ku70/80 heterodimer (Ku) (P13010 whole entry, chain 2 of 2): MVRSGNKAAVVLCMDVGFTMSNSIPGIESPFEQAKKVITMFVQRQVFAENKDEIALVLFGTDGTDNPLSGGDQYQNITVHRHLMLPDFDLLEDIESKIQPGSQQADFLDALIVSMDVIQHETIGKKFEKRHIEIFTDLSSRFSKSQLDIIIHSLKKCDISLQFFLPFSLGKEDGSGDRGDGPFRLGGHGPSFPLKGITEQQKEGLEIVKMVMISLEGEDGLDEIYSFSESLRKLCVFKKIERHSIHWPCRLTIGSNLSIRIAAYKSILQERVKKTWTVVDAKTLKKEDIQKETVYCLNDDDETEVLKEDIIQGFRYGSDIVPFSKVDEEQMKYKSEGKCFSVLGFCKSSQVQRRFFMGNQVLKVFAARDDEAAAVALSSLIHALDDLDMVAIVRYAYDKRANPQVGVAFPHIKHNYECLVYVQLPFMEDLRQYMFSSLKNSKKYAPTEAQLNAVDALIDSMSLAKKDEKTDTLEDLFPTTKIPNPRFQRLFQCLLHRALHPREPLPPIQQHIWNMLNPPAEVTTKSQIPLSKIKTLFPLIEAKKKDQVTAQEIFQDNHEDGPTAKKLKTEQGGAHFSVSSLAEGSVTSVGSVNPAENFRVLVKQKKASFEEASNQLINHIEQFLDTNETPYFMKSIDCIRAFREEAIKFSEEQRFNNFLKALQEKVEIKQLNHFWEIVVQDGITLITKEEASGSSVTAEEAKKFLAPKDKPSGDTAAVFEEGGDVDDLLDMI

Binder	Kd [nM]
B1	0.086
B2	0.11
